# Data reported in the supplement of paper PMC5998384.
# What was measured:
# [1] = system: HeLa Kyoto; assay: solubility change mitosis vs G1/S (difference of NP-40 vs SDS log2 ratios) (log2 ratio difference); higher = more soluble in mitosis
# [2] = system: HeLa Kyoto; assay: melting temperature (median over replicates), in situ; higher = more thermally stable
# [3] = system: HeLa Kyoto; assay: thermal stability score vs G1/S (z-score of summed log2 fold changes over temperatures); higher = more thermally stable than in G1/S
# [4] = system: HeLa Kyoto; assay: solubility in G1/S (NP-40 vs SDS abundance) (log2 ratio); higher = more soluble; conditions: cell cycle stage: G1/S
# [5] = cell cycle stage: early G1 (4.5 h after nocodazole release)
# 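For melting temperature (median over replicates), in situ in this document: HeLa Kyoto cells synchronized by double thymidine or nocodazole block, proteins quantified by TMT10plex mass spectrometry, three independent biological replicates.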
# 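For solubility change mitosis vs G1/S (difference of NP-40 vs SDS log2 ratios) in this document: synchronized HeLa Kyoto cells (double thymidine block for G1/S, nocodazole release for mitosis), protein amounts in NP-40 versus SDS lysates quantified by mass spectrometry, three biological replicates.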
# 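For solubility in G1/S (NP-40 vs SDS abundance) in this document: HeLa Kyoto cells arrested at G1/S by double thymidine block, proteins quantified by TMT10plex mass spectrometry in mild NP-40 versus SDS extracts, three biological replicates.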
# 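For thermal stability score vs G1/S (z-score of summed log2 fold changes over temperatures) in this document: synchronized HeLa Kyoto cells, proteins quantified by TMT10plex mass spectrometry, three biological replicates, mitosis taken 0.5 h after nocodazole release, G1/S directly after double thymidine block.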
substance,measurement,setting,value
MAEEEVAKLEKHLMLLRQEYVKLQKKLAETEKRCALLAAQANKESSSESFISRLLAIVADLYEQEQYSDLKIKVGDRHISAHKFVLAARSDSWSLANLSSTKELDLSDANPEVTMTMLRWIYTDELEFREDDVFLTELMKLANRFQLQLLRERCEKGVMSLVNVRNCIRFYQTAEELNASTLMNYCAEIIASHWDDLRKEDFSSMSAQLLYKMIKSKTEYPLHKAIKVEREDVVFLYLIEMDSQLPGKLNEADHNGDLALDLALSRRLESIATTLVSHKADVDMVDKSGWSLLHKGIQRGDLFAATFLIKNGAFVNAATLGAQETPLHLVALYSSKKHSADVMSEMAQIAEALLQAGANPNMQDSKGRTPLHVSIMAGNEYVFSQLLQCKQLDLELKDHEGSTALWLAVQHITVSSDQSVNPFEDVPVVNGTSFDENSFAARLIQRGSHTDAPDTATGNCLLQRAAGAGNEAAALFLATNGAHVNHRNKWGETPLHTACRHGLANLTAELLQQGANPNLQTEEALPLPKEAASLTSLADSVHLQTPLHMAIAYNHPDVVSVILEQKANALHATNNLQIIPDFSLKDSRDQTVLGLALWTGMHTIAAQLLGSGAAINDTMSDGQTLLHMAIQRQDSKSALFLLEHQADINVRTQDGETALQLAIRNQLPLVVDAICTRGADMSVPDEKGNPPLWLALANNLEDIASTLVRHGCDATCWGPGPGGCLQTLLHRAIDENNEPTACFLIRSGCDVNSPRQPGANGEGEEEARDGQTPLHLAASWGLEETVQCLLEFGANVNAQDAEGRTPIHVAISSQHGVIIQLLVSHPDIHLNVRDRQGLTPFACAMTFKNNKSAEAILKRESGAAEQVDNKGRNFLHVAVQNSDIESVLFLISVHANVNSRVQDASKLTPLHLAVQAGSEIIVRNLLLAGAKVNELTKHRQTALHLAAQQDLPTICSVLLENGVDFAAVDENGNNALHLAVMHGRLNNIRVLLTECTVDAEAFNLRGQSPLHILGQYGKENAAAIFDLFLECMPGYPLDKPDADGSTVLLLAYMKGNANLCRAIVRSGARLGVNNNQGVNIFNYQVATKQLLFRLLDMLSKEPPWCDGSYCYECTARFGVTTRKHHCRHCGRLLCHKCSTKEIPIIKFDLNKPVRVCNICFDVLTLGGVS [ANKFY1],solubility change mitosis (log2),[1],-0.175
same,melting temperature,[2]; cell cycle stage: G1/S,48.8 °C
same,melting temperature,[2]; cell cycle stage: mitosis,49.3 °C
same,thermal stability score,[3]; [5],0.358
same,thermal stability score,[3]; cell cycle stage: mitosis,1.34
same,solubility in G1/S (log2),[4],-0.0647
MLLLPSAADGRGTAITHALTSASTLCQVEPVGRWFEAFVKRRNRNASASFQELEDKKELSEESEDEELQLEEFPMLKTLDPKDWKNQDHYAVLGLGHVRYKATQRQIKAAHKAMVLKHHPDKRKAAGEPIKEGDNDYFTCITKAYEMLSDPVKRRAFNSVDPTFDNSVPSKSEAKDNFFEVFTPVFERNSRWSNKKNVPKLGDMNSSFEDVDIFYSFWYNFDSWREFSYLDEEEKEKAECRDERRWIEKQNRATRAQRKKEEMNRIRTLVDNAYSCDPRIKKFKEEEKAKKEAEKKAKAEAKRKEQEAKEKQRQAELEAARLAKEKEEEEVRQQALLAKKEKDIQKKAIKKERQKLRNSCKTWNHFSDNEAERVKMMEEVEKLCDRLELASLQCLNETLTSCTKEVGKAALEKQIEEINEQIRKEKEEAEARMRQASKNTEKSTGGGGNGSKNWSEDDLQLLIKAVNLFPAGTNSRWEVIANYMNIHSSSGVKRTAKDVIGKAKSLQKLDPHQKDDINKKAFDKFKKEHGVVPQADNATPSERFEGPYTDFTPWTTEEQKLLEQALKTYPVNTPERWEKIAEAVPGRTKKDCMKRYKELVEMVKAKKAAQEQVLNASRAKK [DNAJC2],solubility change mitosis (log2),[1],-0.0365
same,melting temperature,[2]; cell cycle stage: G1/S,48.6 °C
same,melting temperature,[2]; cell cycle stage: mitosis,48.7 °C
same,thermal stability score,[3]; [5],1.17
same,thermal stability score,[3]; cell cycle stage: mitosis,1.39
same,solubility in G1/S (log2),[4],0.0111
TENM3,solubility change mitosis (log2),[1],-0.0942
same,melting temperature,[2]; cell cycle stage: G1/S,54.9 °C
same,melting temperature,[2]; cell cycle stage: mitosis,55.6 °C
same,thermal stability score,[3]; [5],-2.98
same,thermal stability score,[3]; cell cycle stage: mitosis,-2.29
same,solubility in G1/S (log2),[4],0.0433
MIIYRDLISHDEMFSDIYKIREIADGLCLEVEGKMVSRTEGNIDDSLIGGNASAEGPEGEGTESTVITGVDIVMNHHLQETSFTKEAYKKYIKDYMKSIKGKLEEQRPERVKPFMTGAAEQIKHILANFKNYQFFIGENMNPDGMVALLDYREDGVTPYMIFFKDGLEMEKC [TPT1],solubility change mitosis (log2),[1],-0.0912
same,melting temperature,[2]; cell cycle stage: G1/S,53.5 °C
same,melting temperature,[2]; cell cycle stage: mitosis,52.9 °C
same,thermal stability score,[3]; [5],0.357
same,thermal stability score,[3]; cell cycle stage: mitosis,0.0736
same,solubility in G1/S (log2),[4],0.476
MDTPENVLQMLEAHMQSYKGNDPLGEWERYIQWVEENFPENKEYLITLLEHLMKEFLDKKKYHNDPRFISYCLKFAEYNSDLHQFFEFLYNHGIGTLSSPLYIAWAGHLEAQGELQHASAVLQRGIQNQAEPREFLQQQYRLFQTRLTETHLPAQARTSEPLHNVQVLNQMITSKSNPGNNMACISKNQGSELSGVISSACDKESNMERRVITISKSEYSVHSSLASKVDVEQVVMYCKEKLIRGESEFSFEELRAQKYNQRRKHEQWVNEDRHYMKRKEANAFEEQLLKQKMDELHKKLHQVVETSHEDLPASQERSEVNPARMGPSVGSQQELRAPCLPVTYQQTPVNMEKNPREAPPVVPPLANAISAALVSPATSQSIAPPVPLKAQTVTDSMFAVASKDAGCVNKSTHEFKPQSGAEIKEGCETHKVANTSSFHTTPNTSLGMVQATPSKVQPSPTVHTKEALGFIMNMFQAPTLPDISDDKDEWQSLDQNEDAFEAQFQKNVRSSGAWGVNKIISSLSSAFHVFEDGNKENYGLPQPKNKPTGARTFGERSVSRLPSKPKEEVPHAEEFLDDSTVWGIRCNKTLAPSPKSPGDFTSAAQLASTPFHKLPVESVHILEDKENVVAKQCTQATLDSCEENMVVPSRDGKFSPIQEKSPKQALSSHMYSASLLRLSQPAAGGVLTCEAELGVEACRLTDTDAAIAEDPPDAIAGLQAEWMQMSSLGTVDAPNFIVGNPWDDKLIFKLLSGLSKPVSSYPNTFEWQCKLPAIKPKTEFQLGSKLVYVHHLLGEGAFAQVYEATQGDLNDAKNKQKFVLKVQKPANPWEFYIGTQLMERLKPSMQHMFMKFYSAHLFQNGSVLVGELYSYGTLLNAINLYKNTPEKVMPQGLVISFAMRMLYMIEQVHDCEIIHGDIKPDNFILGNGFLEQDDEDDLSAGLALIDLGQSIDMKLFPKGTIFTAKCETSGFQCVEMLSNKPWNYQIDYFGVAATVYCMLFGTYMKVKNEGGECKPEGLFRRLPHLDMWNEFFHVMLNIPDCHHLPSLDLLRQKLKKVFQQHYTNKIRALRNRLIVLLLECKRSRK [BUB1],solubility change mitosis (log2),[1],-0.112
same,melting temperature,[2]; cell cycle stage: G1/S,48.8 °C
same,melting temperature,[2]; cell cycle stage: mitosis,49.9 °C
same,thermal stability score,[3]; [5],0.554
same,thermal stability score,[3]; cell cycle stage: mitosis,1.15
same,solubility in G1/S (log2),[4],-0.019
MSRQNLVALTVTTLLGVAVGGFVLWKGIQRRRRSKTSPVTQQPQQKVLGSRELPPPEDDQLHSSAPRSSWKERILKAKVVTVSQEAEWDQIEPLLRSELEDFPVLGIDCEWVNLEGKASPLSLLQMASPSGLCVLVRLPKLICGGKTLPRTLLDILADGTILKVGVGCSEDASKLLQDYGLVVRGCLDLRYLAMRQRNNLLCNGLSLKSLAETVLNFPLDKSLLLRCSNWDAETLTEDQVIYAARDAQISVALFLHLLGYPFSRNSPGEKNDDHSSWRKVLEKCQGVVDIPFRSKGMSRLGEEVNGEATESQQKPRNKKSKMDGMVPGNHQGRDPRKHKRKPLGVGYSARKSPLYDNCFLHAPDGQPLCTCDRRKAQWYLDKGIGELVSEEPFVVKLRFEPAGRPESPGDYYLMVKENLCVVCGKRDSYIRKNVIPHEYRKHFPIEMKDHNSHDVLLLCTSCHAISNYYDNHLKQQLAKEFQAPIGSEEGLRLLEDPERRQVRSGARALLNAESLPTQRKEELLQALREFYNTDVVTEEMLQEAASLETRISNENYVPHGLKVVQCHSQGGLRSLMQLESRWRQHFLDSMQPKHLPQQWSVDHNHQKLLRKFGEDLPIQLS [EXD2],solubility change mitosis (log2),[1],-0.0547
same,melting temperature,[2]; cell cycle stage: G1/S,49.7 °C
same,melting temperature,[2]; cell cycle stage: mitosis,49.6 °C
same,thermal stability score,[3]; [5],0.38
same,thermal stability score,[3]; cell cycle stage: mitosis,0.455
same,solubility in G1/S (log2),[4],0.113
MFRFMRDVEPEDPMFLMDPFAIHRQHMSRMLSGGFGYSPFLSITDGNMPGTRPASRRMQQAGAVSPFGMLGMSGGFMDMFGMMNDMIGNMEHMTAGGNCQTFSSSTVISYSNTGDGAPKVYQETSEMRSAPGGIRETRRTVRDSDSGLEQMSIGHHIRDRAHILQRSRNHRTGDQEERQDYINLDESEAAAFDDEWRRETSRFRQQRPLEFRRLESSGAGGRRAEGPPRLAIQGPEDSPSRQSRRYDW [MLF2],solubility change mitosis (log2),[1],-0.0421
same,melting temperature,[2]; cell cycle stage: G1/S,46.2 °C
same,thermal stability score,[3]; [5],1.43
same,thermal stability score,[3]; cell cycle stage: mitosis,5.61
same,solubility in G1/S (log2),[4],0.236
MAAALLARASGPARRALCPRAWRQLHTIYQSVELPETHQMLLQTCRDFAEKELFPIAAQVDKEHLFPAAQVKKMGGLGLLAMDVPEELGGAGLDYLAYAIAMEEISRGCASTGVIMSVNNSLYLGPILKFGSKEQKQAWVTPFTSGDKIGCFALSEPGNGSDAGAASTTARAEGDSWVLNGTKAWITNAWEASAAVVFASTDRALQNKGISAFLVPMPTPGLTLGKKEDKLGIRGSSTANLIFEDCRIPKDSILGEPGMGFKIAMQTLDMGRIGIASQALGIAQTALDCAVNYAENRMAFGAPLTKLQVIQFKLADMALALESARLLTWRAAMLKDNKKPFIKEAAMAKLAASEAATAISHQAIQILGGMGYVTEMPAERHYRDARITEIYEGTSEIQRLVIAGHLLRSYRS [ACADS],solubility change mitosis (log2),[1],-0.159
same,melting temperature,[2]; cell cycle stage: G1/S,55.3 °C
same,melting temperature,[2]; cell cycle stage: mitosis,53.9 °C
same,thermal stability score,[3]; [5],-1.85
same,thermal stability score,[3]; cell cycle stage: mitosis,-3.37
same,solubility in G1/S (log2),[4],0.191
EED,solubility change mitosis (log2),[1],0.102
same,melting temperature,[2]; cell cycle stage: G1/S,49.7 °C
same,melting temperature,[2]; cell cycle stage: mitosis,50.2 °C
same,thermal stability score,[3]; [5],1.42
same,thermal stability score,[3]; cell cycle stage: mitosis,1.21
same,solubility in G1/S (log2),[4],-0.587
